From patent US20240101652A1 (SINGH BIOTECHNOLOGY, published 2024)
Values joined by “and” are separate entries in the source; they are usually repeats but may differ in a detail not shown here. Equal values may be shown once.

Legend:
[1] = target: T1, Human STAT3 Protein (recombinant) (human, UniProt P40763 1-770); assay: SPR, Biacore 3000
T1 construct: also called recombinant STAT3

[2] = target: STAT3 (endogenous, in human cells and from lysed cancer cell lines) (human, UniProt P40763 2-770); assay: cell-based or functional assay

binding result [1]	IC50, STAT3 luciferase reporter assay in HEK 293 cells after IL-6 stimulation [2]	Binder
no binding	–	Anti-KRAS VHH (SBT-102 (SEQ ID NO: 2)) (VHH) VHH: EVQLVESGGGSVQTGGSLRLSCAVSGNIGSSYCMGWFRQAPGKKREAVARIVRDGATGYADYVKGRFTISRDSAKNTLYLQMNRLIPEDTAIYYCAADLPPGCLTQAIWNFGYRGQGTLVTVSS
–	2.68 µg/mL and 0.18 µM	Anti-KRAS/Anti-STAT3 VHH (SBT-100 (SEQ ID NO: 1)) (VHH) VHH: HVQLVESGGGSVQAGGSLRLSCAASGANGGRSCMGWFRQVPGKEREGVSGISTGGLITYYADSVKGRFTISQDNTKNTLYLQMNSLKPEDTAMYYCATSRFDCYRGSWFNRYMYNSWGQGTQVTVSS
